Measured values from article PMC12095075.

Biological target: HIF2A N-terminal region (bHLH-PAS);BMAL1 N-terminal region (bHLH-PAS) (mouse;mouse) (UniProt P97481+Q9WTL8)
Test: SPR
Settings: 1:1 fit, error is fit error, SPR: 20 mM MES pH 5.5, 300 mM NaCl, 0.05% Tween-20, 0.02% BSA, EMSA: 10 mM MES pH 6.0, 50 mM KCl, 1 mM DTT, 2.5% glycerol, 0.05% NP-40, 5 mM MgCl2, room …

Sequence of HIF2A N-terminal region (bHLH-PAS);BMAL1 N-terminal region (bHLH-PAS) (mouse;mouse) (P97481 3-361, chain 1 of 2): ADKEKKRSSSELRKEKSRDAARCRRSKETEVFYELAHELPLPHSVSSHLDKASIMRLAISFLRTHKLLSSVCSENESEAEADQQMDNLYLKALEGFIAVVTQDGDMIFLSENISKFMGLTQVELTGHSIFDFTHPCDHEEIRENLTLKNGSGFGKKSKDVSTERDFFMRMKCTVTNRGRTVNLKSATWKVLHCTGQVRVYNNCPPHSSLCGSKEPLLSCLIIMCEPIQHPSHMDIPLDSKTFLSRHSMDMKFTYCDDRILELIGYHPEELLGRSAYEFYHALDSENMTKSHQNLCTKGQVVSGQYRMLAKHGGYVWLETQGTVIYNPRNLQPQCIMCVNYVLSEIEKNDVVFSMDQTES
Sequence of HIF2A N-terminal region (bHLH-PAS);BMAL1 N-terminal region (bHLH-PAS) (mouse;mouse) (Q9WTL8 68-488, chain 2 of 2): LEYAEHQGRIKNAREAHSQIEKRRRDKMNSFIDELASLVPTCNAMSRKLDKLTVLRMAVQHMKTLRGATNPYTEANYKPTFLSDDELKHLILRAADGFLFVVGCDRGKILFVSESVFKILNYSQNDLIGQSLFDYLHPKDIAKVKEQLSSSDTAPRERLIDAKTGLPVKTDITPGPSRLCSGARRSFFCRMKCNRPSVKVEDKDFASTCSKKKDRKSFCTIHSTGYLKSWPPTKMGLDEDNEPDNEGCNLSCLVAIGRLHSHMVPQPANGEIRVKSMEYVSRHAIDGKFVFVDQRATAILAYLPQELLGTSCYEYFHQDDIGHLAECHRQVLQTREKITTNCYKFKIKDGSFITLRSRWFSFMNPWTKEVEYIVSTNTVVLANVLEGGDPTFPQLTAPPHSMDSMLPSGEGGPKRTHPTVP

Row | Substance | Kd (ka 2.10e5 1/(M*s), kd 7.85e-4 1/s) | Kd (ka 1.75e5 1/(M*s), kd 8.45e-4 1/s)
1 | 22-bp E-box duplex, SPR | 3.74 nM | 
2 | 22-bp HRE duplex, SPR |  | 4.84 nM
